Literature values in US20250101104A1, “BISPECIFIC MOLECULE WITH TUNABLE AFFINITY TO A TARGETED ANTIGEN” (MABSWITCH INC., priority 2022, published 2025).

Test system: AML cell lines and primary AML blasts
Details: in vitro and in NOD SCID mice injected with human AML

B1: MGDO06: CD3×CD123 DART (Macrogenics) (antibody, chains of the INN, looked up, V domains shown)
VH: EVQLVQSGAELKKPGASVKVSCKASGYTFTDYYMKWVRQAPGQGLEWIGDIIPSNGATFYNQKFKGRVTITVDKSTSTAYMELSSLRSEDTAVYYCARSHLLRASWFAYWGQGTLVTVSS
VL: DFVMTQSPDSLAVSLGERVTMSCKSSQSLLNSGNQKNYLTWYQQKPGQPPKLLIYWASTRESGVPDRFSGSGSGTDFTLTISSLQAEDVAVYYCQNDYSYPYTFGQGTKLEIK
VH2: EVQLVESGGGLVQPGGSLRLSCAASGFTFSTYAMNWVRQAPGKGLEWVGRIRSKYNNYATYYADSVKDRFTISRDDSKNSLYLQMNSLKTEDTAVYYCVRHGNFGNSYVSWFAYWGQGTLVTVSS
VL2: QAVVTQEPSLTVSPGGTVTLTCRSSTGAVTTSNYANWVQQKPGQAPRGLIGGTNKRAPWTPARFSGSLLGGKAALTITGAQAEDEADYYCALWYSNLWVFGGGTKLTVL
modifications: DART
killing of AML cell lines and primary AML blasts: dose-dependent killing
